The results in this text go back to US20230265198A1 (TWIST BIOSCIENCE, published 2023).

Assay [1] concerns the target neuropilin-1 (NRP1), analyte in SPR (UniProt O14786 22-644, limits assumed). Briefly: SPR, Carterra LSA, antibody coupled. The procedure: SPR experiments were performed on a Carterra LSA SPR biosensor equipped with a HC30M chip at 25° C. in HBS-TE. Antibodies were diluted to 10 μg/mL and amine-coupled to the sensor chip by EDC/NHS activation, followed by ethanolamine HCl quenching. Increasing concentrations of analyte were flowed over the sensor chip in HBS-TE with 0.5 mg/mL BSA with 5-minute association and 15-minute dissociation. Following each injection cycle the surface was regenerated with 2× 30-second injections of IgG elution buffer (Thermo). Data were analyzed in Carterra's Kinetics Tool software with 1:1 binding model.
Background: In SPR one partner is held on a chip, and binding of the other changes the refractive index at the surface.

Assay [2] addresses T1, neuropilin-1 (NRP1) on HEK293 cells overexpressing NRP1 (UniProt O14786 22-923, limits assumed).
T1 construct: whole, on cells
The assay can be described thus: flow cytometry, HEK293-NRP1 vs HEK293. For orientation: In flow cytometry, cells or beads pass a laser one at a time.

Assay [3] concerns the target neuropilin-1 (NRP1) on HEK293 cells overexpressing NRP1 (UniProt O14786). The assay can be described thus: flow cytometry, HEK293-NRP1 vs HEK293.

B1: NRP1-8 (VHH)
VHH: EVQLVESGGGLVQPGGSLRLSCAASGFPLDDYAMGWFRQAPGKEREFVAAINWSGGSAVYADSVKGRFTISADNSKNTAYLQMNSLKPEDTAVYYCMRGGSYGDYGGYWGQGTLVTVSS
Usually Kd stands for the constant that tells how readily two partners part at equilibrium. A high value points to weaker binding. The koff is the rate constant with which the complex falls apart. Lower therefore signals slow dissociation. Broadly, the kon is the second-order rate constant of association. A high value points to faster complex formation. As to B1, in assay [1], the Kd stood at 91.1 nM, the koff came out at 0.00283 s⁻¹ and the kon was determined as 31100 M⁻¹ s⁻¹. In addition, in assay [2], the “100 nM FACS (MFI Ratio)” value is 3.1.

B2: NRP1-84 (VHH)
VHH: EVQLVESGGGLVQPGGSLRLSCAASGRTFSNYKMGWFRQAPGKEREFVARIFTDDGDSYYADSVKGRFTISADNSKNTAYLQMNSLKPEDTAVYYCAKWDGLGTLWGQGTLVTVSS
On to B2, for which the 100 nM FACS (MFI Ratio) in assay [3] was found to be 1.7.

B3: NRP1-128 (antibody, IgG2, V domains shown)
VH: EVQLLESGGGLVQPGGSLRLSCAASGFTFSRYAMNWVRQAPGKGLEWVSAISGSGGNTYYADSVKGRFTISRDNSKNTLYLQMNSLRAEDTAVYYCARVRRGGATDYWGQGTLVTVSS
VL: DIQMTQSPSSLSASVGDRVTITCRASQDVSSGVAWYQQKPGKAPKLLIYGKNIRPSGVPSRFSGSGSGTDFTLTISSLQPEDFATYYCQQTYSPPLTFGQGTKVEIK
With B3, in assay [1], the binding result is “no binding”. For the same molecule, the “100 nM FACS (MFI Ratio)” value in assay [2] came to 1.2.

B4: NRP1-82 (VHH)
VHH: EVQLVESGGGLVQPGGSLRLSCAASGRTFNRYPMGWFRQAPGKEREWVSAINSNGNRYYYADSVKGRFTISADNSKNTAYLQMNSLKPEDTAVYYCAIHTSREIWGQGTLVTVSS
For B4, the 100 nM FACS (MFI Ratio) in assay [3] was determined as 2.

B5: NRP1-11 (VHH)
VHH: EVQLVESGGGLVQPGGSLRLSCAASGRTFTTYPMGWFRQAPGKEREFVAAITWNGASTSYADSVKGRFTISADNSKNTAYLQMNSLKPEDTAVYYCAKGGGYSGYDYDYWGQGTLVTVSS
With B5, the binding result in assay [1] is recorded as “no binding”. In addition, the “100 nM FACS (MFI Ratio)” value in assay [2] is 2.3.

B6: NRP1-15 (VHH)
VHH: EVQLVESGGGLVQPGGSLRLSCAASGFTFSNYDMGWFRQAPGKEREFVAAISWSGTLTSYADSVKGRFTISADNSKNTAYLQMNSLKPEDTAVYYCARQRETGHLILYSDYYYGMDVWGQGTLVTVSS
Take B6: the binding result in assay [1] is “no binding”. In assay [2], the “100 nM FACS (MFI Ratio)” value turned out to be 6.5.

B7: NRP1-35 (VHH)
VHH: EVQLVESGGGLVQPGGSLRLSCAASGSIFSFNAMGWFRQAPGKERELVASITPGGNINYADSVKGRFTISADNSKNTAYLQMNSLKPEDTAVYYCARDVEGGWYGLSYGMDVWGQGTLVTVSS
Consider B7, for which, in assay [1], the binding result was “no binding”. In addition, the “100 nM FACS (MFI Ratio)” value in assay [2] is 2.9.

B8: NRP1-105 (VHH)
VHH: EVQLVESGGGLVQPGGSLRLSCAASGTTFRINVMGWFRQAPGKERELVAAMRWSSSSTDYADSVKGRFTISADNSKNTAYLQMNSLKPEDTAVYYCAASIEGVSGRWGQGTLVTVSS
As to B8, the 100 nM FACS (MFI Ratio) in assay [3] worked out at 1.8.

B9: NRP1-204 (antibody, IgG2, V domains shown)
VH: EVQLLESGGGLVQPGGSLRLSCAASGFTFSAFAMSWVRQAPGKGLEWVSGTSGSGGSTYYADSVKGRFTISRDNSKNTLYLQMNSLRAEDTAVYYCARHRAYSYGLDYWGQGTLVTVSS
VL: DIQMTQSPSSLSASVGDRVTITCRARQSISTYLNWYQQKPGKAPKLLIYSASTLESGVPSRFSGSGSGTDFTLTISSLQPEDFATYYCQQSYRTPWTFGGGTKVEIK
For B9, in assay [1], binding was put at a Kd of 408000 nM, the koff was 0.0897 s⁻¹ and the on-rate constant (kon) was 220 M⁻¹ s⁻¹. Further, in assay [2], the “100 nM FACS (MFI Ratio)” value is 9.2.

B10: NRP1-210 (antibody, IgG2, V domains shown)
VH: EVQLLESGGGLVQPGGSLRLSCAASGFTFSSYVMAWVRQAPGKGLEWVSTISASGGTTYYADSVKGRFTISRDNSKNTLYLQMNSLRAEDTAVYYCAKVGSGWYFWGQGTLVTVSS
VL: DIQMTQSPSSLSASVGDRVTITCRTSQSISRYLNWYQQKPGKAPKLLIYAASSLQGGVPSRFSGSGSGTDFTLTISSLQPEDFATYYCQQSYTVPITFGGGTKVEIK
On to B10, for which the binding result in assay [1] is on record as “no binding”. The “100 nM FACS (MFI Ratio)” value in assay [2] turned out to be 2.1.

B11: NRP1-121 (antibody, IgG2, V domains shown)
VH: QVQLVQSGAEVKKPGSSVKVSCKASGGTFSNYAISWVRQAPGQGLEWMGGIIPINYAQKFQGRVTITADESTSTAYMELSSLRSEDTAVYYCVRRVVGATPFDYWGQGTLVTVSS
VL: DIQMTQSPSSLSASVGDRVTITCRASQIIRRYLNWYQQKPGKAPKLLIYPASSLQSGVPSRFSGSGSGTDFTLTISSLQPEDFATYYCQQAYSTPMFGQGTKVEIK
As to B11, in assay [3], the 100 nM FACS (MFI Ratio) was found to be 1.5.

B12: NRP1-25 (VHH)
VHH: EVQLVESGGGLVQPGGSLRLSCAASGRTSNIYAMGWFRQAPGKERELVAAIRWSGVETYYADSVKGRFTISADNSKNTAYLQMNSLKPEDTAVYYCAADRMYRPVGNQYDWGQGTLVTVSS
As for B12, in assay [1], the Kd stood at 831 nM, the koff was 0.00969 s⁻¹ and the kon turned out to be 11700 M⁻¹ s⁻¹. Besides, the “100 nM FACS (MFI Ratio)” value in assay [2] worked out at 8.9.

B13: NRP1-18 (VHH)
VHH: EVQLVESGGGLVQPGGSLRLSCAASGFRFSSYGMGWFRQAPGKEREFVAFISGNPSRTYYADSVKGRFTISADNSKNTAYLQMNSLKPEDTAVYYCAARPYQKYNWASASYNWGQGTLVTVSS
Consider B13, for which, in assay [1], the affinity, expressed as Kd, was 290 nM; the koff came out at 0.00374 s⁻¹; the kon is 12900 M⁻¹ s⁻¹. Moreover, the “100 nM FACS (MFI Ratio)” value in assay [2] was found to be 20.8.

B14: NRP1-33 (VHH)
VHH: EVQLVESGGGLVQPGGSLRLSCAASGRTFSSGTMGWFRQASGKEREFVARINSDGSTNYADSVKGRFTISADNSKNTAYLQMNSLKPEDTAVYYCAKWSSSWYGYYYYGMDVWGQGTLVTVSS
Regarding B14, in assay [1], the Kd was 10.8 nM, the koff worked out at 0.0167 s⁻¹ and the kon was found to be 1.55e+06 M⁻¹ s⁻¹. Moreover, the “100 nM FACS (MFI Ratio)” value in assay [2] came out at 335.

B15: NRP1-134 (antibody, IgG2, V domains shown)
VH: EVQLLESGGGLVQPGGSLRLSCAASGFTFSNYGVSWVRQAPGKGLEWVSEISPSGKKKYYADSVKGRFTISRDNSKNTLYLQMNSLRAEDTAVYYCAKTTDIQRLNSAFDYWGQGTLVTVSS
VL: DIQMTQSPSSLSASVGDRVTITCRASQPIAYFLSWYQQKPGKAPKLLIYDASSLHTGVPSRFSGSGSGTDFTLTISSLQPEDFATYYCSSRDKSGSRLVTFGQGTKVEIK
With B15, the binding result in assay [1] is on record as “no binding”. Besides, the “100 nM FACS (MFI Ratio)” value in assay [2] amounted to 1.9.

B16: NRP1-118 (antibody, IgG2, V domains shown)
VH: EVQLLESGGGLVQPGGSLRLSCAASGFTFNKYPMMWVRQAPGKGLEWVSRISVAGRRTAYADSVKGRFTISRDNSKNTLYLQMNSLRAEDTAVYYCAKWRREGYTGSKFDYWGQGTLVTVSS
VL: DIQMTQSPSSLSASVGDRVTITCSASQDINKYLNWYQQKPGKAPKLLIYGTSNLESGVPSRFSGSGSGTDFTLTISSLQPEDFATYYCHTWDHHHTTGEHNVFGQGTKVEIK
Turning to B16, in assay [1], the binding result was “no binding”. Further, in assay [2], the “100 nM FACS (MFI Ratio)” value is 4.5.

B17: NRP1-115 (antibody, IgG2, V domains shown)
VH: EVQLLESGGGLVQPGGSLRLSCAASGFTFGHYEMDWVRQAPGKGLEWVSSIDDRGRYTYYADSVKGRFTISRDNSKNTLYLQMNSLRAEDTAVYYCARSKIAFDYWGQGTLVTVSS
VL: DIQMTQSPSSLSASVGDRVTITCRASQNIRSYLNWYQQKPGKAPKLLIYGRNKRPSGVPSRFSGSGSGTDFTLTISSLQPEDFATYYCQQSYENPLTFGQGTKVEIK
As to B17, in assay [1], binding was put at a Kd of 87.4 nM, the koff turned out to be 0.00951 s⁻¹ and the kon was 109000 M⁻¹ s⁻¹. Moreover, the “100 nM FACS (MFI Ratio)” value in assay [2] is 0.8.

B18: NRP1-132 (antibody, IgG2, V domains shown)
VH: EVQLLESGGGLVQPGGSLRLSCAASGFTFGDHGMGWVRQAPGKGLEWVSYITPKGDHTYYADSVKGRFTISRDNSKNTLYLQMNSLRAEDTAVYYCASLPKRGPRFDYWGQGTLVTVSS
VL: DIQMTQSPSSLSASVGDRVTITCRASQNIRSYLNWYQQKPGKAPKLLIYRLSVLQSGVPSRFSGSGSGTDFTLTISSLQPEDFATYYCQQGYTLPWTFGQGTKVEIK
Regarding B18, the binding result in assay [1] is listed as “no binding”. For the same molecule, in assay [2], the “100 nM FACS (MFI Ratio)” value came out at 0.8.

B19: NRP1-125 (antibody, IgG2, V domains shown)
VH: EVQLLESGGGLVQPGGSLRLSCAASGFTFSGYDMQWVRQAPGKGLEWVSSISGYGSTTYYADSVKGRFTISRDNSKNTLYLQMNSLRAEDTAVYYCAKGRRIFDYWGQGTLVTVSS
VL: DIQMTQSPSSLSASVGDRVTITCRASQTIERRLNWYQQKPGKAPKLLIYRKSNRPSGVPSRFSGSGSGTDFTLTISSLQPEDFATYYCQQNNNWPTTFGQGTKVEIK
Turning to B19, the binding result in assay [1] is listed as “no binding”. Further, the “100 nM FACS (MFI Ratio)” value in assay [2] amounted to 0.6.

B20: NRP1-6 (VHH)
VHH: EVQLVESGGGLVQPGGSLRLSCAASGLTYTMNWFRQAPGKEREFVAGFAGIGTVTSYADSVKGRFTISADNSKNTAYLQMNSLKPEDTAVYYCSGFDGYSGSDWGQGTLVTVSS
As to B20, the binding result in assay [1] is “no binding”. Further, the “100 nM FACS (MFI Ratio)” value in assay [2] amounted to 0.5.

B21: NRP1-4 (VHH)
VHH: EVQLVESGGGLVQPGGSLRLSCAASGNIFINNAMGWFRQAPGKERELVAAITSSSGRRWYADSVKGRFTISADNSKNTAYLQMNSLKPEDTAVYYCAARRIVNVEGAYRDWGQGTLVTVSS
For B21, in assay [1], binding was characterised by a dissociation constant (Kd) of 183 nM, the koff was found to be 0.047 s⁻¹ and the kon stood at 256000 M⁻¹ s⁻¹. Further, the “100 nM FACS (MFI Ratio)” value in assay [2] was 30.9.
